Experimental data: publication PMC10942606

Assays:
Test in all cases: EMSA
Pcf1_WHD = molecular target: T1, Pcf1_WHD (Schizosaccharomyces pombe, UniProt Q1MTN9 471-544)
T1 sequence: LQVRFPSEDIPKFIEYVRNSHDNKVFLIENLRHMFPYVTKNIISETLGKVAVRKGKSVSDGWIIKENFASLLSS

[1] = molecular target: Pcf1-ΔWHD;Pcf2;Pcf3;SpPCNA (Schizosaccharomyces …, UniProt Q1MTN9;O13985;Q9Y825;Q03392 1-470;1-512;1-408;1-260, del471-544|||)
Pcf1 WT;Pcf2;Pcf3;SpPCNA = Pcf1 WT;Pcf2;Pcf3;SpPCNA (Schizosaccharomyces …, UniProt Q1MTN9;O13985;Q9Y825;Q03392 1-544;1-512;1-408;1-260, |||)
Pcf1 WT;Pcf2;Pcf3 = molecular target: T2, Pcf1 WT;Pcf2;Pcf3 (Schizosaccharomyces …, UniProt Q1MTN9;O13985;Q9Y825 1-544;1-512;1-408, ||)
T2 sequence 1: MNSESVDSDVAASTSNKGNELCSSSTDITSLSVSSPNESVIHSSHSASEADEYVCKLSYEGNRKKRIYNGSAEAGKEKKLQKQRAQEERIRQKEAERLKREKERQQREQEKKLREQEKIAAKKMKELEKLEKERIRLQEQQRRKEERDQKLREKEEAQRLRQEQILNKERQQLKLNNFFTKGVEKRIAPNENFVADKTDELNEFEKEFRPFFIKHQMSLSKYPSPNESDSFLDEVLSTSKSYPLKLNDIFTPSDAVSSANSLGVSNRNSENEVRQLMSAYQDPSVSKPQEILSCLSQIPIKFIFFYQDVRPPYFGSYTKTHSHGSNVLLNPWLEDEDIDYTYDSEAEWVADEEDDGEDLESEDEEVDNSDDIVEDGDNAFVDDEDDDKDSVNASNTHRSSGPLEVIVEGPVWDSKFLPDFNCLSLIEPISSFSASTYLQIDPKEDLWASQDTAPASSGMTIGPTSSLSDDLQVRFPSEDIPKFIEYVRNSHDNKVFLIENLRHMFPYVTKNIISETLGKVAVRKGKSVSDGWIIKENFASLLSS
T2 sequence 2: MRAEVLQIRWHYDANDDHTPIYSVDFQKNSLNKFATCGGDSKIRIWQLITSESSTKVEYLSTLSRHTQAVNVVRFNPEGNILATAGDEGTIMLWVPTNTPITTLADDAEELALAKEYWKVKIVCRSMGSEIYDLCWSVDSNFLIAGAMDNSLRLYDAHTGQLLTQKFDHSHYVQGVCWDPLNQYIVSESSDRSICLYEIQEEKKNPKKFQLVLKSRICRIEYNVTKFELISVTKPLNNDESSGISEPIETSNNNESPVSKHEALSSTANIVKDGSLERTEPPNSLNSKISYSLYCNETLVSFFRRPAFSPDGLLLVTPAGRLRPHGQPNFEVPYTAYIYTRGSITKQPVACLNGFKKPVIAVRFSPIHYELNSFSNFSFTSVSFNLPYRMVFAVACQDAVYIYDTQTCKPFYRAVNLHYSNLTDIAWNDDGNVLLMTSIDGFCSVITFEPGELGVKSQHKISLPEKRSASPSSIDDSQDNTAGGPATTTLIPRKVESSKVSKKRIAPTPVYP
T2 sequence 3: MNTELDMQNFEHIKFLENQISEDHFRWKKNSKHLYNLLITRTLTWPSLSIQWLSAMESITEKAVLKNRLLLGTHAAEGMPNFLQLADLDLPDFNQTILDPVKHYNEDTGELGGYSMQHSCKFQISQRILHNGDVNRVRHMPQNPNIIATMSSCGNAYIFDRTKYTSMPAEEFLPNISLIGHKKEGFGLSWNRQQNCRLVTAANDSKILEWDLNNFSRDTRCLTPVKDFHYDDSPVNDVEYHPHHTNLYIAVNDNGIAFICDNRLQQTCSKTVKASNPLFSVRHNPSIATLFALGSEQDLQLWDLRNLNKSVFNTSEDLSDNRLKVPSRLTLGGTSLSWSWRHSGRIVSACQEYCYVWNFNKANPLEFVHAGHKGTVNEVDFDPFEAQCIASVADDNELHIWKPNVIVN

Sequence of Pcf1 WT;Pcf2;Pcf3;SpPCNA (Q03392 whole entry, one chain of several): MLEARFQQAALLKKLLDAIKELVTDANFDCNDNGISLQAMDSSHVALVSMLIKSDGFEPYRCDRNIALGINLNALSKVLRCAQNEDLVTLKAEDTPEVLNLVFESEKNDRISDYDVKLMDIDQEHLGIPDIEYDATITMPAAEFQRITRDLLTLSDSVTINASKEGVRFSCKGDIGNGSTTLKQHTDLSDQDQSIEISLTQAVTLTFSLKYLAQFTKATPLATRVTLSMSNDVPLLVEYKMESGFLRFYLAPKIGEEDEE
Sequence of Pcf1-ΔWHD;Pcf2;Pcf3;SpPCNA (Q03392 whole entry, stated change not applied, one chain of several): as the sequence (Q03392 whole entry, one chain of several) above

B1: 40 bp dsDNA (dsDNA)
DNA 1: ATCAATATCCACCTGCAGATACTACCAAAAGTGTATTTGG
DNA 2: CCAAATACACTTTTGGTAGTATCTGCAGGTGGATATTGAT
Pcf1_WHD
  binding result: no binding
[1]
  binding result: binds
Pcf1 WT;Pcf2;Pcf3;SpPCNA
  binding result: binds
Pcf1 WT;Pcf2;Pcf3
  apparent K (half saturation): 3.4 ± 0.4 µM
